Results from patent US20100317837A1.

Key:
[1] = target: Env clone VI1273 on pseudotype virus (HIV-1 isolate VI1273); assay: cell-based or functional assay
[2] = target: Env NL4-3 on 293 cells (HIV-1 NL4-3, clade B); assay: cell-based or functional assay
[3] = target: Env clone VI1399 on pseudotype virus (HIV-1 isolate VI1399); assay: cell-based or functional assay
[4] = target: Env clone MN-TCLA on pseudotype virus (HIV-1 isolate MN-TCLA) (UniProt P05877); assay: cell-based or functional assay
[5] = target: Env BR029.2 on 293 cells (HIV-1 isolate BR029.2, clade F); assay: cell-based or functional assay
[6] = target: Env clone GX-C44 on pseudotype virus (HIV-1 isolate GX-C44, Clade C); assay: cell-based or functional assay
[7] = target: Env clone Z2Z6 on pseudotype virus (HIV-1 isolate Z2Z6, Clade D); assay: cell-based or functional assay
[8] = target: Env TH022.4 on 293 cells (HIV-1 isolate TH022.4, clade EA); assay: cell-based or functional assay
[9] = target: Env HT593.1 on 293 cells (HIV-1 isolate HT593.1, clade B); assay: cell-based or functional assay
[10] = target: Env US005.11 on 293 cells (HIV-1 isolate US005.11, clade B); assay: cell-based or functional assay
[11] = target: Env clone TH966 on pseudotype virus (HIV-1 isolate TH966); assay: cell-based or functional assay
[12] = target: Env UG037.8 on 293 cells (HIV-1 isolate UG037.8, clade A); assay: cell-based or functional assay
[13] = target: Env US715.6 on 293 cells (HIV-1 isolate US715.6, clade B); assay: cell-based or functional assay
[14] = target: Env BR025.9 on 293 cells (HIV-1 isolate BR025.9, clade C); assay: cell-based or functional assay
[15] = target: Env 89.6 on 293 cells (HIV-1 isolate 89.6, clade B); assay: cell-based or functional assay
[16] = target: Env UG975.10 on 293 cells (HIV-1 isolate UG975.10, clade G); assay: cell-based or functional assay
[17] = target: Env clone R2 on pseudotype virus (HIV-1 isolate R2, Clade B); assay: cell-based or functional assay
[18] = target: Env clone GX-E14 on pseudotype virus (HIV-1 isolate GX-E14, Clade E); assay: cell-based or functional assay
[19] = target: Env RW020.5 on 293 cells (HIV-1 isolate RW020.5, clade A); assay: cell-based or functional assay
[20] = target: gp120 JR-FL (HIV-1 isolate JR-FL); assay: ELISA, antigen coated on plate, soluble Fab titrated, Langmuir fit
[21] = target: sCD4-gp120 89.6 complex (HIV-1 isolate 89.6) (UniProt P01730); assay: as above
[22] = target: gp120 89.6 (HIV-1 isolate 89.6); assay: as above
[23] = target: Env clone P37 on pseudotype virus (HIV-1 isolate P37); assay: cell-based or functional assay
[24] = target: Env clone VI14004 on pseudotype virus (HIV-1 isolate VI14004, Clade F); assay: cell-based or functional assay
[25] = target: Env clone V5 on pseudotype virus (HIV-1 isolate V5); assay: cell-based or functional assay
[26] = target: Env clone 92RW020.5 on pseudotype virus (HIV-1 isolate 92RW020.5, Clade A); assay: cell-based or functional assay
[27] = target: gp120 IIIB (HIV-1 isolate IIIB) (UniProt P04578); assay: ELISA, antigen coated on plate, soluble Fab titrated, Langmuir fit
[28] = target: gp140 89.6 (HIV-1 isolate 89.6); assay: ELISA, soluble Fab titrated on Env (direct or D7324 capture format not specified)
[29] = target: gp120 IIIB (HIV-1 isolate IIIB) (UniProt P04578); assay: ELISA, soluble Fab titrated on Env (direct or D7324 capture format not specified); IIIB* is gp120

UniProt P05877, sequence (P05877 32-856 limits assumed): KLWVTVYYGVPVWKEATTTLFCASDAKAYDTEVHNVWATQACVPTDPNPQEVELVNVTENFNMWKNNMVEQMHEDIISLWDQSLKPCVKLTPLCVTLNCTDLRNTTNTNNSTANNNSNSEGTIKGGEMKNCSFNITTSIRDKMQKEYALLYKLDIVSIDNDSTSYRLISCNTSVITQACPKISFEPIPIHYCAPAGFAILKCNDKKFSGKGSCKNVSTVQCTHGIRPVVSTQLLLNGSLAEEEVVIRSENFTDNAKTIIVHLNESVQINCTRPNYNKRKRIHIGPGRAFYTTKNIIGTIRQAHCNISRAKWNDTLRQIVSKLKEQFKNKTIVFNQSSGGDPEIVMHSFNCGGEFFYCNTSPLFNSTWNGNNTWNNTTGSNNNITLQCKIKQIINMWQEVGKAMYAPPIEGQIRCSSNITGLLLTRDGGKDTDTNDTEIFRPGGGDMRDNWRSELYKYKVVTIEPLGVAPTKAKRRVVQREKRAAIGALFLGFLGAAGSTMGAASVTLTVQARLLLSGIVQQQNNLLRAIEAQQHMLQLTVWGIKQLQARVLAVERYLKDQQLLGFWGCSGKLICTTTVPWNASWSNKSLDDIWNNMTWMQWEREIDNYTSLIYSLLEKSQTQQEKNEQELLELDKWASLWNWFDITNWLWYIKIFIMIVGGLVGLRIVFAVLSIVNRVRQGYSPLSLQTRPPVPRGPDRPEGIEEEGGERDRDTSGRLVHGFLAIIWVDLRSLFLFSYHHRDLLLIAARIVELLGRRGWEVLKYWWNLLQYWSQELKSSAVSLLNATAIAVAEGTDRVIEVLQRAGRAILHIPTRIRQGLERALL

Substance | Concentration of Fab at the 50% neutralization endpoint, pseudovirus assay [1] | % of fusion inhibition, cell-cell fusion assay, Fab at 50 µg/ml [2] | Concentration of Fab at the 50% neutralization endpoint, pseudovirus assay [3] | Concentration of Fab at the 50% neutralization endpoint, pseudovirus assay [4] | % of fusion inhibition, cell-cell fusion assay, Fab at 50 µg/ml [5] | Concentration of Fab at the 50% neutralization endpoint, pseudovirus assay [6] | Concentration of Fab at the 50% neutralization endpoint, pseudovirus assay [7] | % of fusion inhibition, cell-cell fusion assay, Fab at 50 µg/ml [8] | % of fusion inhibition, cell-cell fusion assay, Fab at 50 µg/ml [9] | % of fusion inhibition, cell-cell fusion assay, Fab at 50 µg/ml [10] | Concentration of Fab at the 50% neutralization endpoint, pseudovirus assay [11] | % of fusion inhibition, cell-cell fusion assay, Fab at 50 µg/ml [12] | % of fusion inhibition, cell-cell fusion assay, Fab at 50 µg/ml [13] | % of fusion inhibition, cell-cell fusion assay, Fab at 50 µg/ml [14] | % of fusion inhibition, cell-cell fusion assay, Fab at 50 µg/ml [15] | % of fusion inhibition, cell-cell fusion assay, Fab at 50 µg/ml [16] | Concentration of Fab at the 50% neutralization endpoint, pseudovirus assay [17] | Concentration of Fab at the 50% neutralization endpoint, pseudovirus assay [18] | % of fusion inhibition, cell-cell fusion assay, Fab at 50 µg/ml [19] | Kd [20] | further results
Fab m14 | 3.1 µg/mL | 96% | > 100 µg/mL | 2.24 µg/mL | 71% | 8.8 µg/mL | 50 µg/mL | 100% | 78% | 95% | > 100 µg/mL | 100% | 35% | 71% | 100% | 22% | 2.24 µg/mL | 100 µg/mL | 31% | 0.9 nM | Kd [21]: 7.3 nM; Kd [22]: 5.4 nM
Fab X5 | – | 83% | – | – | 36% | – | – | 43% | 27% | 72% | – | 34% | 28% | 71% | 93% | 19% | – | – | 45% | – | –
Fab m18 | 25 µg/mL | 92% | > 100 µg/mL | < 1.6 µg/mL | 86% | > 25 µg/mL | 25 µg/mL | 93% | 39% | 93% | > 100 µg/mL | 34% | 97% | 86% | 100% | 56% | 1.6 µg/mL | > 100 µg/mL | 25% | 0.9 nM | Concentration of Fab at the 50% neutralization endpoint, pseudovirus assay [23]: 100 µg/mL; Concentration of Fab at the 50% neutralization endpoint, pseudovirus assay [24]: < 2 µg/mL; Concentration of Fab at the 50% neutralization endpoint, pseudovirus assay [25]: < 2 µg/mL; Concentration of Fab at the 50% neutralization endpoint, pseudovirus assay [26]: 3 µg/mL; Kd [21]: 0.9 nM; Kd [22]: 1 nM; Kd [27]: 0.08 nM; EC50 [28]: 1.17 nM; EC50 [29]: 0.48 nM
